Test: soluble on expression in E. coli; label from the status in PepcDB or PDB records

Sequence | soluble on expression in E. coli
MSLNTPQSAIIPDHAQAGIFIEADFAANRLNDIKAACRASLDALTALKARFPDDILGLTIAFGSKAWATFGHTDEGSEIKPFSEMGNGLAPSTQHDMSIHIQSFRQNAAYALAQSVLGAFGDSICVASEEHGLRLYQDRGLDGFVDGTENPQGDENVREVAIIPEGKPDAGGSYVLLQKYLHDLKKWDAVPVAEQEASVGRGKETDDEFGRDVRLPDSHLGRVNLKENGVGLKIVRRSLPFGKISGEHGLMFTAYCRTLHNIEAQLLSMFGDTDGKTDLLLRHLSAAVSGGYYYAPSVERLQNLEGGSHHHHHH | soluble
MSLIIAIQGGMAVGKTTALKIIEKVYPKIAISFEDISPVVDKINKHQLDNNKLDDYCEIQQLFIQHERDRYELVRDNEIVLMDYGAEEIAFYTQYFPKVAGYSWTLPSNLLLEVNRLKECFADYIIFLDADKTVLYQRQKNDFNRRRHFFKWYTHHLLPAKKHYLDTFSNVIHINTNHLNAEEVAEKIIDIIRKLTEGHHHHHH | soluble
MGSSHHHHHHSSGLVPRGSHMNSILITGCNRGLGLGLVKALLNLPQPPQHLFTTCRNREQAKELEDLAKNHSNIHILEIDLRNFDAYDKLVADIEGVTKDQGLNVLFNNAGIAPKSARITAVRSQELLDTLQTNTVVPIMLAKACLPLLKKAAKANESQPMGVGRAAIINMSSILGSIQGNTDGGMYAYRTSKSALNAATKSLSVDLYPQRIMCVSLHPGWVKTDMGGSSAPLDVPTSTGQIVQTISKLGEKQNGGFVNYDGTPLAW | soluble
MPAGLVISAPASGVGKTTLTLALARAWRNRGLSVQCFKSGPDYIDPAFHAAATGRASVNVDSWAMDRGGIAHLVGRGADADVVLAEGSMGLFDGVAARGVSGTGATADIAEMLGWPVLLVIDPSGQAQTAAAIAAGLRDYRPGVRLAGVVLNRVASPRHEDLVRRALDDAGIAVFGALPRHAEISLPKRHLGLVQAEEQAEIGKLIDEAARFVAEHVDLDAVLQSAAAWAPQPAANGLNVTPPGQRIALARDAAFSFVYPHMLEAWRAAGADISTFSPLADEAPDASADVCWLPGGYPELHAGKIAANARFCSGLRAFAETRPVHGECGGYMVLGTALTDADGVRHEMAGLLGLETSFAKRRMHLGYRLAELAAPMPGHSPGARLRGHEFHYSTIAAQPDMPLAVVHDATGAVIAETGSRRGNATGTFFHLIAEDRLEHHHHHH | soluble
MIFSDWPWRHWRQVRGETIALRLNDEQLNWRELCARVDELASGFAVQGVVEGSGVMLRAWNTPQTLLAWLALLQCGARVLPVNPQLPQPLLEELLPNLTLQFALVPDGENTFPALTSLHIQLVEGAHAATWQPTRLCSMTLTSGSTGLPKAAVHTYQAHLASAQGVLSLIPFGDHDDWLLSLPLFHVSGQGIMWRWLYAGARMTVRDKQPLEQMLAGCTHASLVPTQLWRLLVNRSSVSLKAVLLGGAAIPVELTEQAREQGIRCFCGYGLTEFASTVCAKEADGLADVGSPLPGREVKIVNNEVWLRAASMAEGYWRNGQLVSLVNDEGWYATRDRGEMHNGKLTIVGRLDNLFFSGGEGIQPEEVERVIAAHPAVLQVFIVPVADKEFGHRPVAVMEYDHESVDLSEWVKDKLARFQQPVRWLTLPPELKNGGIKISRQALKEWVQRQQ | soluble
MGHHHHHHSHMRPLTEEETRVMFEKIAKYIGENLQLLVDRPDGTYCFRLHNDRVYYVSEKIMKLAANISGDKLVSLGTCFGKFTKTHKFRLHVTALDYLAPYAKYKVWIKPGAEQSFLYGNHVLKSGLGRITENTSQYQGVVVYSMADIPLGFGVAAKSTQDCRKVDPMAIVVFHQADIGEYVRHEETLT | soluble
MPYAIDFGTTNTVIARWNEATRQGNLIDLPSLSHPLGDSGPLVPSLLYVENAALGQVAIAREVLDRGRDISTDTRFFKNFKRGIGVAVQGFLPQLDGHTLSLETLGQWYLDKLIRILTEQEGQGPDCLALTVPVDSFESYRHWLSHTCRSWGVEEVRLVDEPTAAALGYGVGDASQILVLDFGGGTVDFSWVQLGDRGQKGRSGFLLKWGGILGGSKAEEKSALAKVLAKAGANLGGSDIDYWISEYFTEAQGLQVSPWIRRLAERLKIALGEAEEATEVYFDDQALESYEFQLRRSDLTEILQQRQFFERLTALWEQVQQTAQRRGLTPANLDAVLVVGGTSQLPMVQDWINAQFPAGKIRNQQPFGAIALGALQIYQGREVQDYLYHSYGVRYWNRRKNSHNWHPIIKNGQTYPMAEPIELTLGASLDNQPSIELIVGELGSSIGATEVYFDGNQLITRVLENQAFTVQPLNDRNGARQIAQLSPPGVPGGDRIKVKFWVDDQRYLRLTVEDLLQQKLLLENQVVAQLRLEHHHHHH | not soluble
MGLIFAKLWSLFCNQEHKVIIVGLDNAGKTTILYQFLMNEVVHTSPTIGSNVEEIVVKNTHFLMWDIGGQESLRSSWNTYYSNTEFIILVVDSIDRERLAITKEELYRMLAHEDLRKAAVLIFANKQDMKGCMTAAEISKYLTLSSIKDHPWHIQSCCALTGEGLCQGLEWMTSRIGVR | soluble
MGSDKIHHHHHHVLIKSIKLTNILSFGEAAETIELRPLNVVIGPNGSGKSNLIAAIELFRALPKDAPAFFRREGGIHDWLWKGGEIPPVATIESVFDEKGPLSGLRYALRFTVVGQHFEIIEERIEEEAAEGAQTPPPYHFKDGRGALRALLANEGEIKAWSFVIPSEIDPTQSILAQRKDPHQYPELTSLGAVLPTMRCYREWTMGPQSPPRQDQKTDLRNDYLDPYGAGNLALVLQRLGNKPALKKRFLEALRLLYEGIDDYGVTIEGGTSQIFFHEGGRFTIPASRLSDGTLRYLCLLAILLDPAPPPLLCIEEPELGLHPDILPTLADLLKEASERTQVIVTTHSDGLVDAMTDRPEAVLIAEKNENGTTLTRLDGETLKPWLAKYRLGELWTRGGIGGTRW | not soluble
SEDKKKKRSPKPCLTQQAQAPGTLRRVPVPTSHSGSLALGLPHLPSPKQRAKFKRAGKEKCRPVLAGGGGGSAGTPLQHSFLTEVTDVYEMEGGLLNLLNDFHSGRLQAFGKECSFEQLEHVREMQEKLARLHFSLDVCGEEEDEEEEEDGVTEGLPEEQKKTMADRNLDQLLSNLEDLSNSIQKLHLAENAEPEDQPAA | soluble
MGSDKIHHHHHHMTNTIPNWIKLNNEIMIQKDGKYQFEKDKEAVHSYFVDYINQNTVFFHDLKEKLDYLIKNDYYEEEFLSKYTFEQIKSIYKIAYSYKFRFPSFMSAFKFYNDYALKTNDKTKILERYEDRVSIVALYCADGDYEKAVEEVHTMMKQEYQPATPTFLNAGRKRRGEMVSCFLLEVGDSLNDISRAIDISMQLSKLGGGVALNLNKLRAKGEAIKDVENATKGVVGVMKLLDNAFRYADQMG | not soluble
MGSDKIHHHHHHKVRPTKTTLKKDTQLYGVTIDDSWYDRTKMTDIIAALKAMPVKPTVRIVMSKDSSPKSYVNLFRKLHKVAYVMACPVDSYEMNLYKDVNSYRKRFAVAYHYLSSYTDIWEIGNEVNGTDWIKQKNTLITQKLKAVCQTISSAGGKTALTFYYENPKYDHDMIAWIKKNIPVMLRSRVDYGFISYYEDDNEGYQPDWQSVFNQLQNLFPNSNVGMGECGNTADNATENSKIAMAKRYYTMPKYTKHYVGGYFWWEWVQDCVPHENNPIYDAINKSLKK | not soluble
MIALGIEGTAWSLSIGVVDEEGVIALENDPYIPKEGGIHPREASQHHSERLPSLLSRVFEKVDKNSIDVVAFSQGPGMGPCLRVVATAARLLAIKLEKPLVGVNHCLAHVEVGRWQTGARKPVSLYVSGGNSQVIARRGNRYRVFGETLDIGIGNALDKLARHMGLKHPGGPKIEELAKKGQKYHFLPYVVKGMDFSFSGMVTAAQRLFDSGVRMEDVAFSFQETAFAMLTEVTERALAYLDLNEVLLVGGVAANKRLQEMLRIMCEDRGAKFYVPPKELAGDNGAMIAYTGLLMYKHGHQTPVEKSYVRPDFRIEDVEVNWD | soluble
MGHHHHHHSHMAFPGQSDTKMQWPEVPALPLLSSLCMAMVRKSSALGKEVGRRVKEMVMLVAPFRQSSSLSRTFSSRKVVKAHASLHGARLSPLSRNIRG | not soluble
MQENPTVWLFDLDNTLHDADAGIFHLINRAMTRYMARRLKLSESAASDLRQDYWHRYGATLAGLQIHHPEIDIAEFLRESHPIDAILTRLHGMADTENTLCRLNGRKAVFSNGPSFYVRAVAGALGLENCFDALFGTDDFGLLYKPNPQAYLNVCRLLDVPPECCIMVDDSADNLHQAKALGMKTVRFGAKSHAPPFIDASVSDMAQLARYAETLSERRQNHYNTRTPRKYERMLCVKPSLS | not soluble
MGSDKIHHHHHHMKNLYAKVIVGGSPISKSNFKLSNINGRAILPYNSGQYHDRYAIYEETIAYEARSQNPNTVISESIIAVLKVFYKSKKRHPDTNNITKSIFDGIEKSGIIVNDAQITRIIIEEYYDMINPRFELELFAESKFKMKYSILKKEEEDEPILYDPPSNKKRLITKTQKPKKSAQNGTITCSICGKKVTNDNIIWANKGTTALCKNCLKKSF | not soluble
MGSDKIHHHHHHMRHAYRQFGPGTLYTVRLLRALDYLWRHLDEPLLLDRLAEEACFSRFHFHRLYRNLMGETVMESRQRMLLHRAAGELGRADRPLASVAVRAGFSSSAAFIRAFAGRYGETPGRYRQRRLMFLNQRERTMRQVEIVERDAVKVLMRHHRGPYMEIGKAFDALRAVQGPQQGVGAPSRSFGLYLDDQAQTPAADCRSIACATVPAFMEGKAMDGFEWGSIPAGRYAAVLHTGPYSELGECWDWLYRHWLPASGEMPGDTPCVEEYLNAPYDTPPAELKTLLLLSLA | not soluble
MSLSLEYKGTFGSINAGYADWNSGFVNTHRGEVWKVTADFGVNFKEAEFYSFYESNVLNHAVAGRNHTVSAMTHVRLFDSDMTFFGKIYGQWDNSWGDDLDMFYGFGYLGWNGEWGFFKPYIGLHNQSGDYVSAKYGQTNGWNGYVVGWTAVLPFTLFDEKFVLSNWNEIELDRNDAYTEQQFGRNGLNGGLTIAWKFYPRWKASVTWRYFDNKLGYDGFGDQMIYMLGYDFEGHHHHHH | not soluble
MGSDKIHHHHHHMDTDLLKTFLEVSRTRHFGKAAENLYLTRSAVSFRIKQLENILGLELFERLRNNIQPTPAGERMLGHAEAVLNAWERAKQDIILNQQHSAQLALSAGDNIWDAFLQGFLQPLHLGLEGVALRTDVLPATVMTRQLIERTLDIAITFDPPKLDGVILVKLAEVKLYLVSKQAGVKLTQTPTLPYIKVDWGTAFNITHAQDFTMLPLPVLHTSSARMALDFILNNGGCAFLPEALIKPYLDNGSLYVVDDAKCIHRHVYAAYWAENERLAYIEQAISILTTDKRTE | not soluble
MGKPTGFMEYKRETPPKKDPFERSKNWQEFTLLMPESALRQQGARCMDCGVPFCQTGTSMDGSGEIGCPVYNLIPEWNDLVYRGHWKEALERLHKTNNFPEFTGRVCPAPCEGSCTVAISDDAVAIKSMEFHIVERGFQEGWIVPNPPRSRTGKKVAVVGSGPAGLAAAAQLNKAGHWVTVFEREDRIGGLLTYGIPDVKLPYHVVERRINLLKEEGIEFRTNVEIGKDVSAKQLKDDFDAVVLCTGATKPRDVNVKGRELKGIHFAMDFLTANTKSLLNSNHQDGNYISAKGKHVVVIGGGDTGADCITTSVRHGAKSITQFDINREKSNERPDNNPWPLFPIVHTVEDGHKEAAAVYGKDPRAYQVMTTKFVGDAEGHVKEIHTISVETTVHPDGSKTRVEIPGTEKVWPADLVFLAVGFTGPEEQLVRELELETDTRSNIKAEYGKYETSLEGVFAAGDNRRGQSLVVWAIHEGREAARECDKYLMGASNLPLEHHHHHH | soluble
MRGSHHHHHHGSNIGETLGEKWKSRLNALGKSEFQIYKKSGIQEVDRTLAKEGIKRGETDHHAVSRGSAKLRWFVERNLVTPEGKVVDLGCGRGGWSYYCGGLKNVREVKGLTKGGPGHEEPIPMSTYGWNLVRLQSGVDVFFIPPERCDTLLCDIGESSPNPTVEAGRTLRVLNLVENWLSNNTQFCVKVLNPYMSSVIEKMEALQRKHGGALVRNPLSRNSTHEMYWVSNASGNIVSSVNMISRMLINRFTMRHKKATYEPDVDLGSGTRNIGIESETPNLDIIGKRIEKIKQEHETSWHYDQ | soluble
